According to the Immune Epitope Database (IEDB):
pIC50, pKd: −log10 of the molar value.

Tests used:
[1] = molecular target: HLA-B*40:01; assay: IEDB peptide-MHC binding, purified MHC/competitive/radioactivity; filed as Kd, often an IC50 or EC50 that approximates it; ≥ and ≤ were set here for values at or beyond the usual limits of such assays
[2] = molecular target: HLA-B*18:01; assay: as above
[3] = molecular target: HLA-B*45:01; assay: as above
[4] = molecular target: HLA-B*44:02; assay: as above
[5] = molecular target: HLA-B*44:03; assay: as above
[6] = molecular target: HLA-B*40:02; assay: as above
[7] = molecular target: HLA-A*02:01; assay: IEDB peptide-MHC binding, purified MHC/competitive/fluorescence; filed as Kd, often an IC50 or EC50 that approximates it; ≥ and ≤ were set here for values at or beyond the usual limits of such assays
[8] = molecular target: HLA-A*30:02; assay: IEDB peptide-MHC binding, purified MHC/competitive/radioactivity; filed as Kd, often an IC50 or EC50 that approximates it; ≥ and ≤ were set here for values at or beyond the usual limits of such assays
[9] = molecular target: HLA-B*15:01; assay: as above
[10] = molecular target: HLA-A*68:01; assay: as above
[11] = molecular target: HLA-A*33:01; assay: as above
[12] = molecular target: HLA-A*31:01; assay: IEDB peptide-MHC binding, purified MHC/direct/fluorescence; filed as Kd, often an IC50 or EC50 that approximates it; ≥ and ≤ were set here for values at or beyond the usual limits of such assays
[13] = molecular target: HLA-A*02:06; assay: IEDB peptide-MHC binding, purified MHC/competitive/radioactivity; filed as Kd, often an IC50 or EC50 that approximates it; ≥ and ≤ were set here for values at or beyond the usual limits of such assays
[14] = molecular target: HLA-A*02:01; assay: IEDB peptide-MHC binding, purified MHC/competitive/fluorescence; ≥ and ≤ were set here for values at or beyond the usual limits of such assays
[15] = molecular target: HLA-A*24:02; assay: as above
[16] = molecular target: HLA-A*02:01; assay: IEDB peptide-MHC binding, purified MHC/competitive/radioactivity; filed as Kd, often an IC50 or EC50 that approximates it; ≥ and ≤ were set here for values at or beyond the usual limits of such assays
[17] = molecular target: HLA-A*30:01; assay: as above
[18] = molecular target: HLA-A*02:02; assay: as above; conditions: source organism: Homo sapiens
[19] = molecular target: HLA-A*02:03; assay: as above
[20] = molecular target: HLA-A*01:01; assay: IEDB peptide-MHC binding, purified MHC/direct/fluorescence; filed as Kd, often an IC50 or EC50 that approximates it; ≥ and ≤ were set here for values at or beyond the usual limits of such assays; conditions: source organism: Influenza A virus (A/Moscow/343/2003(H3N2))
[21] = molecular target: HLA-A*26:01; assay: IEDB peptide-MHC binding, purified MHC/competitive/radioactivity; filed as Kd, often an IC50 or EC50 that approximates it; ≥ and ≤ were set here for values at or beyond the usual limits of such assays
[22] = molecular target: HLA-A*29:02; assay: as above
[23] = molecular target: HLA-A*32:01; assay: as above
[24] = molecular target: HLA-A*01:01; assay: as above
[25] = molecular target: HLA-B*08:01; assay: as above
[26] = molecular target: HLA-A*31:01; assay: as above
[27] = molecular target: HLA-A*03:01; assay: IEDB peptide-MHC binding, purified MHC/direct/fluorescence; filed as Kd, often an IC50 or EC50 that approximates it; ≥ and ≤ were set here for values at or beyond the usual limits of such assays
[28] = molecular target: HLA-A*03:01; assay: IEDB peptide-MHC binding, purified MHC/competitive/radioactivity; filed as Kd, often an IC50 or EC50 that approximates it; ≥ and ≤ were set here for values at or beyond the usual limits of such assays; conditions: source organism: Vaccinia virus WR
[29] = molecular target: HLA-A*11:01; assay: as above; conditions: source organism: Vaccinia virus WR
[30] = source organism: Lassa virus Josiah
[31] = source organism: Dengue virus 2 Jamaica/1409/1983
[32] = source organism: SARS coronavirus Tor2
[33] = source organism: Dengue virus 1 Brazil/97-11/1997
[34] = source organism: Vaccinia virus WR
[35] = source organism: Sudan ebolavirus
[36] = source organism: Zaire ebolavirus
[37] = source organism: Dengue virus 4 Philippines/H241/1956
[38] = source organism: Mammarenavirus lassaense
[39] = source organism: Vaccinia virus
[40] = source organism: Mammarenavirus machupoense
[41] = source organism: Mammarenavirus tacaribeense
[42] = source organism: Mammarenavirus guanaritoense
[43] = source organism: Dengue virus 3 Martinique/1243/1999
[44] = source organism: Dengue virus 1 Singapore/S275/1990
[45] = source organism: Mammarenavirus brazilense
[46] = source organism: Rickettsia prowazekii
[47] = source organism: Brucella melitensis
[48] = source organism: Mammarenavirus whitewaterense

AEAQMSIQL
pKd [1, 30]: 7.64 | pKd [2, 30]: ≤ 4.63 | pKd [3, 30]: 6.61 | pKd [4, 30]: 7.43 | pKd [5, 30]: 6.97 | pKd [6, 30]: 7.90

ALAWSLQML
pKd ([7]; source organism: Escherichia coli O139:H28 str. E24377A): 8.47

ALHQVFGAIY
pKd [8, 31]: 7.14 | pKd [9, 31]: 8.36

ALRANSAVK
pKd [10, 32]: ≤ 4.58 | pKd [11, 32]: ≤ 4.11 | pKd ([12]; source organism: SARS-CoV1): 6.32

AQMWQLMYF
pKd [13, 33]: 8.02 | pKd [9, 33]: 8.80

AQNALDNLVM
pKd [9, 33]: 8.69

ASNIVLDQI
pIC50 [14, 34]: ≤ 4.06 | pIC50 [15, 34]: 5.28

ATGKCNPNL
pIC50 [14, 35]: 4.91 | pIC50 [15, 35]: ≤ 3.85

AWQSVGHMM
pIC50 [14, 36]: ≤ 3.75 | pIC50 [15, 36]: 4.46

CINGVCWTA
pKd ([16]; source organism: hepatitis C virus genotype 1a): 5.57

CRSCTMPPLR
pKd [17, 37]: 5.82

CTREEFISK
pKd [17, 37]: 7.68

DEILLDGGAS
pKd [1, 38]: ≤ 4.37 | pKd [2, 38]: 7.15 | pKd [3, 38]: 5.23 | pKd [4, 38]: ≤ 5.00 | pKd [5, 38]: ≤ 4.59 | pKd [6, 38]: 6.04

DEWSVATFY
pKd [1, 32]: ≤ 4.12 | pKd [2, 32]: 8.55 | pKd [3, 32]: ≤ 4.11 | pKd [4, 32]: 6.50 | pKd [5, 32]: 7.98 | pKd [6, 32]: ≤ 4.11

DLEDLKDQI
pKd [18]: 4.79 | pKd ([16]; source organism: Homo sapiens): ≤ 4.61 | pKd ([19]; source organism: Homo sapiens): 4.87 | pKd ([13]; source organism: Homo sapiens): ≤ 4.10

DRDINPIVK
pIC50 [15, 39]: 4.48

DTKIDLWSY
pKd [20]: ≤ 4.70

EDDRERLKV
pIC50 ([15]; source organism: Variola virus): 7.77

EELSLMYETL
pKd [1, 40]: 4.98 | pKd [2, 40]: 5.61 | pKd [3, 40]: 6.02 | pKd [4, 40]: 5.81 | pKd [5, 40]: 5.88 | pKd [6, 40]: 6.96

EEVPTLIKTL
pKd [1, 41]: 5.12 | pKd [2, 41]: ≤ 4.15 | pKd [3, 41]: 5.52 | pKd [4, 41]: 5.07 | pKd [5, 41]: 5.48 | pKd [6, 41]: 5.20

ELLSYCVSLF
pKd [21, 42]: 7.00 | pKd [22, 42]: 5.24 | pKd [23, 42]: 5.58 | pKd [8, 42]: 5.01 | pKd [17, 42]: 5.97 | pKd [24, 42]: 6.58

ESRFTPQFL
pIC50 [15, 36]: 4.65

ETWILRHPGF
pKd [21, 31]: 5.86 | pKd [17, 31]: 4.91

GLFGKGSLV
pKd ([16]; source organism: dengue virus type 3): 8.54 | pKd [19, 43]: 8.53

GLLEAGNSL
pKd [7, 34]: 8.49

GQITWRDMAH
pKd [9, 43]: 6.82

HTAEAGGRAY
pKd [21, 31]: 7.61 | pKd [8, 31]: 7.60 | pKd [24, 31]: ≤ 4.15 | pKd [9, 31]: 6.94

HTKIDSMFL
pKd [17, 34]: 8.84 | pIC50 ([14]; source organism: Variola virus): 4.27

IHQGMHMVA
pIC50 [14, 36]: ≤ 4.07 | pIC50 [15, 36]: ≤ 3.73

IMAVGIVSIL
pKd [25, 44]: 6.76 | pKd [9, 44]: 8.10

ISRNKNIFV
pKd [17, 34]: 8.14

IWKVNPEID
pIC50 [15, 36]: 4.21

IYRGTTFAE
pIC50 [15, 36]: 5.01

KAYHIIFFV
pKd [17, 34]: 6.39

KEFTRPLISG
pKd [1, 32]: 5.80 | pKd [2, 32]: ≤ 4.15 | pKd [3, 32]: 5.58 | pKd [4, 32]: 5.00 | pKd [6, 32]: 4.71

KGKRALAPPV
pKd [17, 37]: 8.64

KLFSDISAI
pKd [7, 39]: 8.66

KLHSGVDVFY
pKd [8, 37]: 7.92 | pKd [24, 37]: 5.54 | pKd [9, 37]: 8.56

KLVVVAVGV
pKd ([7]; source organism: Schaalia radingae): 8.00

KSKAINVLR
pKd [26, 31]: 8.96 | pKd [17, 31]: 6.99

KSKNINIEV
pKd [17, 34]: 9.49

KTLHSSVQSY
pKd [21, 45]: ≤ 4.43 | pKd [22, 45]: 5.21 | pKd [23, 45]: 6.28 | pKd [8, 45]: 7.13 | pKd [17, 45]: 6.24 | pKd [24, 45]: 5.31

KWLKIITPK
pKd [27, 46]: ≤ 4.70 | pKd [12, 46]: 6.66

LDRPHTPQF
pIC50 [15, 35]: 4.62

LMALKLITQF
pKd [9, 43]: 6.83

LMNKENAEM
pKd [9, 34]: 8.11

LRVLSIPPTA
pKd [17, 37]: 5.46

LVYKKMQSY
pKd [9, 34]: 7.34

MQKFTILEY
pKd [28]: 6.33 | pKd [26, 34]: 6.76 | pKd [10, 34]: 4.97 | pKd [29]: 7.40 | pKd [11, 34]: ≤ 4.26 | pKd [9, 34]: 8.00

MVCPNINAF
pKd [9, 34]: 7.66

MVLPGAANK
pKd [17, 34]: 7.23

MVRLTTQGL
pKd ([17]; source organism: Vaccinia virus Copenhagen): 8.08

NLNVTTQSI
pIC50 [14, 39]: 4.35 | pIC50 [15, 39]: 4.95

PLGLVDLFV
pKd [16, 30]: 5.38

RFTPQFLLQ
pIC50 [15, 36]: 5.39

RIRQQLPLY
pKd [28]: 7.67 | pKd [26, 34]: 6.11 | pKd [10, 34]: 5.92 | pKd [29]: 6.26 | pKd [17, 34]: 7.89 | pKd [11, 34]: ≤ 4.11

RLRGEARKTF
pKd [9, 31]: 7.31

RVRIPDVAR
pKd [27, 47]: 6.53 | pKd [12, 47]: 7.63

RVRISLIYL
pKd [17, 34]: 10.04

SLKDVLVSV
pKd ([7]; source organism: Horsepox virus): 8.44

TFKKSGAIK
pKd [17, 43]: 5.92

TGILQLPRD
pIC50 [14, 36]: ≤ 3.23 | pIC50 [15, 36]: ≤ 3.30

TTKNGQPRK
pKd [17, 34]: 9.63

VLENFTILLV
pKd ([16]; source organism: Homo sapiens): 6.28

VLSPTIGHV
pKd [7, 34]: 8.40

VMVMVGATM
pKd [9, 31]: 8.56

VVKATYLLK
pKd [17, 34]: 9.49

YIKFIFLQM
pKd [25, 34]: 8.07 | pKd [9, 34]: 5.87

YIRFRKNHI
pKd [25, 34]: 8.84 | pKd [9, 34]: 6.00

YLKEEQDQQY
pKd [24, 37]: 4.81 | pKd [9, 37]: 8.12

YLKKKNHPL
pKd ([7]; source organism: Bacillus cereus G9241): 8.22

YVNHTGFNV
pKd [21, 48]: ≤ 4.27 | pKd [22, 48]: 5.61 | pKd [23, 48]: ≤ 4.11 | pKd [8, 48]: ≤ 4.11 | pKd [17, 48]: 5.91 | pKd [24, 48]: 5.23
